Source: US20220119459A1 (OXFORD UNIVERSITY INNOVATION, published 2022)
Changes are numbered by the printed parent chain. Names and notes keep the numbering of the source.

Key:
SpyCatcher002 = assay: 0.5 µM each, PBS pH 7.5, 25 °C, SDS-PAGE with Coomassie staining (FIG. 15A)
Target sequence in this assay (chain, as listed by the source): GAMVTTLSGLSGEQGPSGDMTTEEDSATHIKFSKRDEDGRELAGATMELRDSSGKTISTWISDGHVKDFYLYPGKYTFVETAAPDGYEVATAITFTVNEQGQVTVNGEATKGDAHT

AP-SpyTag002-MBP = molecular target: T1, AP-SpyTag002-MBP; assay: 0.5 µM each, PBS pH 7.5, 25 °C, SDS-PAGE with Coomassie staining (FIG. 16)
T1 construct: not shown: AP peptide tag for site-specific biotinylation; only primer DNA is printed for it

SpyTag002 T3H-MBP
percent increase in activity against SpyTag002 (SEQ ID NO: 3) (SpyCatcher002): 35%

B1: SpyCatcher002 D5A variant with proline at position 92 and aspartic acid at position 100 (SEQ ID NO:47) (designed binder)
chain: GAMVATLSGLSGEQGPSGDMTTEEDSATHIKFSKRDEDGRELAGATMELRDSSGKTISTWISDGHVKDFYLYPGKYTFVETAAPDGYEVATPITFTVNEDGQVTVNGEATKGDAHT
reaction rate (second-order rate constant) (AP-SpyTag002-MBP): 20300 M⁻¹ s⁻¹

B2: SpyCatcher002 D5A variant with aspartic acid at position 100 (SEQ ID NO:46) (designed binder)
chain: B1 chain with P92A
reaction rate (second-order rate constant) (AP-SpyTag002-MBP): 15500 M⁻¹ s⁻¹

B3: SpyCatcher002 D5A variant with proline at position 92 (SEQ ID NO:45) (designed binder)
chain: B1 chain with D100Q
reaction rate (second-order rate constant) (AP-SpyTag002-MBP): 14000 M⁻¹ s⁻¹
